T1: ARHGEF11, O15085
T1 sequence (O15085 42-136, limits assumed, looked up): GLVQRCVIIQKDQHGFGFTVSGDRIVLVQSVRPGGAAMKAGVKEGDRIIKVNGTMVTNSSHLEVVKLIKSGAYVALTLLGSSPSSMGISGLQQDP

T2: APBA3_1, O96018
T2 sequence (O96018 389-490, limits assumed, looked up): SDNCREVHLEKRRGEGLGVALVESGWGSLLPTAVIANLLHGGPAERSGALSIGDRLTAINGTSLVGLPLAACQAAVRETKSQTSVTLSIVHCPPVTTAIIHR

T3: HTRA3, P83110
T3 sequence (P83110 354-453, limits assumed, looked up): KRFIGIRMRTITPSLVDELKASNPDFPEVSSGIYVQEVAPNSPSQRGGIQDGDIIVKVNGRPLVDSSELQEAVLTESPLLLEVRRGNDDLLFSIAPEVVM

T4: SNTB1, Q13884
T4 sequence (Q13884 107-205, limits assumed, looked up): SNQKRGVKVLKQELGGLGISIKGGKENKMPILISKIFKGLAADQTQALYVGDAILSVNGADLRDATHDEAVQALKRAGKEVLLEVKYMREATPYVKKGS

T5: DFNB31_3, Q9P202
T5 sequence (Q9P202 811-907, limits assumed, looked up): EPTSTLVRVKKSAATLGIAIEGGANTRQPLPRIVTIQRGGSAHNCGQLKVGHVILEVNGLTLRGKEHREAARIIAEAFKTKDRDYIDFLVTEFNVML

T6: DFNB31_2, Q9P202
T6 sequence (Q9P202 274-371, limits assumed, looked up): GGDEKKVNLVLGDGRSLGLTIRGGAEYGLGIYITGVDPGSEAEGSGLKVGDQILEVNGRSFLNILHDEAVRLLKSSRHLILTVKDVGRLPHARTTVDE

T7: TJP3_3, O95049
T7 sequence (O95049 375-456, limits assumed, looked up): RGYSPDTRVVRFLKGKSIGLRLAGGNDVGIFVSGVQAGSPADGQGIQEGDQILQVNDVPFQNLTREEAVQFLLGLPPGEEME

T8: RAPGEF6, Q8TEU7
T8 sequence (Q8TEU7 525-625, limits assumed, looked up): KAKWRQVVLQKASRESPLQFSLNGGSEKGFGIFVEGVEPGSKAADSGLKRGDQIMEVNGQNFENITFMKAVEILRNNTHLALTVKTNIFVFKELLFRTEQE

T9: LNX2_2, Q8N448
T9 sequence (Q8N448 334-432, limits assumed, looked up): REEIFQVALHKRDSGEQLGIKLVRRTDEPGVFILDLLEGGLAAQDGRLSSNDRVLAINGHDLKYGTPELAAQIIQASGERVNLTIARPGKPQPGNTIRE

T10: MPDZ_12, O75970
T10 sequence (O75970 1857-1958, limits assumed, looked up): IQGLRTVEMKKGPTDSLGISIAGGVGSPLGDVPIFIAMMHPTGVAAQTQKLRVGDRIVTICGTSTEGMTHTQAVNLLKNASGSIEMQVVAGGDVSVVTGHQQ

T11: SNTG1, Q9NSN8
T11 sequence (Q9NSN8 52-150, limits assumed, looked up): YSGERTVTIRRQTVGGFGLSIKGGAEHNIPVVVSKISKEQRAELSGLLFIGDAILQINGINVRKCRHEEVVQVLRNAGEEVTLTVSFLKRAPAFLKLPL


How the values were obtained:
Experiment in all cases: holdup assay
Set-up in all cases: key: below the threshold = too weak to quantify, mostly under pKd 3.1 to 4
Conditions in all cases: plain residues with an end cap or a label only (N-terminal biotin on a linker: ado-ado)
[1] = target: DLG1_2, Q12959
[2] = target: T1, ARHGEF11, O15085
[3] = target: T2, APBA3_1, O96018
[4] = target: IL16_3, Q14005
Chain of IL16_3, Q14005 (Q14005 1107-1207): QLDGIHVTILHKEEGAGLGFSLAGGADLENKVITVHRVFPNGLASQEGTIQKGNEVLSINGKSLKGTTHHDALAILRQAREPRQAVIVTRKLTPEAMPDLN

[5] = target: GOPC, Q9HD26
[6] = target: T3, HTRA3, P83110
[7] = target: NOS1, P29475
Chain of NOS1, P29475 (P29475 9-101): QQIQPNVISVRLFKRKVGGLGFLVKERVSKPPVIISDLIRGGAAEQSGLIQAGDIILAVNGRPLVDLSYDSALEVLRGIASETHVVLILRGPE

[8] = target: T4, SNTB1, Q13884
[9] = target: SNX27, Q96L92
[10] = target: T5, DFNB31_3, Q9P202
[11] = target: T6, DFNB31_2, Q9P202
[12] = target: Inadl_4, Q8NI35
Chain of Inadl_4, Q8NI35 (Q8NI35 547-651): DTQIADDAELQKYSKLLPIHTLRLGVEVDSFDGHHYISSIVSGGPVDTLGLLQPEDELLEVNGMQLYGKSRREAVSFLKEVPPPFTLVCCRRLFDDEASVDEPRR

[13] = target: TJP1_3, Q07157
Chain of TJP1_3, Q07157 (Q07157 416-512): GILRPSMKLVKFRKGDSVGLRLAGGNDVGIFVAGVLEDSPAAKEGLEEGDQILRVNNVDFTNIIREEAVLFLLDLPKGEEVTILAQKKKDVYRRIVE

[14] = target: PICK1, Q9NRD5
Chain of PICK1, Q9NRD5 (Q9NRD5 17-115): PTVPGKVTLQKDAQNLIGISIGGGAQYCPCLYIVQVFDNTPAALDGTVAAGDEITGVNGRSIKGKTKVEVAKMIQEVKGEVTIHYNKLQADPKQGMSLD

[15] = target: Inadl_10, Q8NI35
Chain of Inadl_10, Q8NI35 (Q8NI35 1673-1763): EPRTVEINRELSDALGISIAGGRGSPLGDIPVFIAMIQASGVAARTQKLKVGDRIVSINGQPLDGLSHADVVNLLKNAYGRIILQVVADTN

[16] = target: PTPN3, P26045
Chain of PTPN3, P26045 (P26045 505-587): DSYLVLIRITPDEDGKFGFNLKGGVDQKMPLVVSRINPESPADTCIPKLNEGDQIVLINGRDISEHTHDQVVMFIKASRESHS

[17] = target: SCRIB_1, Q14160
Chain of SCRIB_1, Q14160 (Q14160 718-814): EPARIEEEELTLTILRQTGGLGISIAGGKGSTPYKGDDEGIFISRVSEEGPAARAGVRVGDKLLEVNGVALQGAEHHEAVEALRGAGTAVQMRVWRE

[18] = target: MAGI2_6, Q86UL8
Chain of MAGI2_6, Q86UL8 (Q86UL8 1141-1229): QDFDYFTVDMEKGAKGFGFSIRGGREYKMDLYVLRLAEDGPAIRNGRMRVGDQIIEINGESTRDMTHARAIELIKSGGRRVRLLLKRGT

[19] = target: NHERF4_2, Q86UT5
Chain of NHERF4_2, Q86UT5 (Q86UT5 220-308): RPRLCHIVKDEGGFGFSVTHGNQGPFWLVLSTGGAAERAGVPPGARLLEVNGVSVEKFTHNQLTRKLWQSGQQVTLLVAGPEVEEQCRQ

[20] = target: T7, TJP3_3, O95049
[21] = target: T8, RAPGEF6, Q8TEU7
[22] = target: T9, LNX2_2, Q8N448
[23] = target: T10, MPDZ_12, O75970
[24] = target: GIPC2, Q8TF65
Chain of GIPC2, Q8TF65 (Q8TF65 112-203): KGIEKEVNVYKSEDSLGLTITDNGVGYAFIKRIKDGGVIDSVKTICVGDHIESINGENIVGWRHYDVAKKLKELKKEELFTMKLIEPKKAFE

[25] = target: T11, SNTG1, Q9NSN8
[26] = target: DLG1_1, Q12959
[27] = target: CASK, O14936
Chain of CASK, O14936 (O14936 487-570): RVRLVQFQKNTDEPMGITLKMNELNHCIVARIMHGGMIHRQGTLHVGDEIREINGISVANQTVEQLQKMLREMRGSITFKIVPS

| Binder | pKd [1] | pKd [2] | pKd [3] | pKd [4] | pKd [5] | pKd [6] | pKd [7] | pKd [8] | pKd [9] | pKd [10] | pKd [11] | pKd [12] | pKd [13] | pKd [14] | pKd [15] | pKd [16] | pKd [17] | pKd [18] | pKd [19] | pKd [20] | other results |
| --- | --- | --- | --- | --- | --- | --- | --- | --- | --- | --- | --- | --- | --- | --- | --- | --- | --- | --- | --- | --- | --- |
| NKSEPFLTWL [WWTR1, Q9GZV5] | 3.59 | 5.33 | 3.5 | below the threshold | 4.16 | 5.43 | 4.05 | 3.79 | 5.02 | 5.34 | below the threshold | below the threshold | below the threshold | below the threshold | 4.63 | 4.74 | 4.63 | 4.9 | below the threshold | 4.15 | pKd [21]: below the threshold; pKd [22]: 4.44; pKd [23]: 4.9; pKd [24]: below the threshold; pKd [25]: below the threshold; pKd [26]: below the threshold; pKd [27]: below the threshold |
| QLGSPTADLA [SIPA1, Q96FS4] | below the threshold | below the threshold | below the threshold | below the threshold | below the threshold | below the threshold | below the threshold | below the threshold | below the threshold | 3.55 | below the threshold | below the threshold | below the threshold | below the threshold | below the threshold | below the threshold | below the threshold | below the threshold | below the threshold | below the threshold | pKd [21]: below the threshold; pKd [22]: below the threshold; pKd [23]: 3.75; pKd [24]: below the threshold; pKd [25]: below the threshold; pKd [26]: below the threshold; pKd [27]: below the threshold |
| PSVYSRSQYV [CLDN8, P56748] | 3.86 | 4.16 | below the threshold | below the threshold | below the threshold | 4.72 | 3.99 | below the threshold | 3.75 | below the threshold | below the threshold | below the threshold | below the threshold | below the threshold | below the threshold | below the threshold | below the threshold | below the threshold | below the threshold | 3.82 | pKd [21]: below the threshold; pKd [22]: 4.66; pKd [23]: below the threshold; pKd [24]: below the threshold; pKd [25]: below the threshold; pKd [26]: below the threshold; pKd [27]: below the threshold |
| GDSSRKEYFI [GYPC, P04921] | 3.95 | below the threshold | below the threshold | below the threshold | below the threshold | 4.64 | 3.64 | below the threshold | below the threshold | 3.81 | below the threshold | below the threshold | below the threshold | below the threshold | below the threshold | 4.16 | below the threshold | below the threshold | below the threshold | 3.69 | pKd [21]: below the threshold; pKd [22]: below the threshold; pKd [23]: 3.5; pKd [24]: below the threshold; pKd [25]: below the threshold; pKd [26]: 3.49; pKd [27]: below the threshold |
| SRPHTNETSL [MCC, P23508] | 4.19 | 4.3 | below the threshold | below the threshold | 3.9 | below the threshold | below the threshold | 4.67 | 5.72 | below the threshold | below the threshold | below the threshold | below the threshold | below the threshold | below the threshold | 4.9 | 5.26 | 3.8 | below the threshold | below the threshold | pKd [21]: below the threshold; pKd [22]: below the threshold; pKd [23]: below the threshold; pKd [24]: 4.08; pKd [25]: 3.93; pKd [26]: 3.72; pKd [27]: below the threshold |

From paper PMC9482650, “Quantitative fragmentomics allow affinity mapping of interactomes” (Nature Communications, 2022)
